Measured values as given in PMC3680705.

Biological target: Drosophila Slit D1-4 (the four leucine-rich repeat domains) (Drosophila)
Assay: ELISA

Drosophila Slit D1-4 (the four leucine-rich repeat domains) (Drosophila), sequence (P24014 64-922): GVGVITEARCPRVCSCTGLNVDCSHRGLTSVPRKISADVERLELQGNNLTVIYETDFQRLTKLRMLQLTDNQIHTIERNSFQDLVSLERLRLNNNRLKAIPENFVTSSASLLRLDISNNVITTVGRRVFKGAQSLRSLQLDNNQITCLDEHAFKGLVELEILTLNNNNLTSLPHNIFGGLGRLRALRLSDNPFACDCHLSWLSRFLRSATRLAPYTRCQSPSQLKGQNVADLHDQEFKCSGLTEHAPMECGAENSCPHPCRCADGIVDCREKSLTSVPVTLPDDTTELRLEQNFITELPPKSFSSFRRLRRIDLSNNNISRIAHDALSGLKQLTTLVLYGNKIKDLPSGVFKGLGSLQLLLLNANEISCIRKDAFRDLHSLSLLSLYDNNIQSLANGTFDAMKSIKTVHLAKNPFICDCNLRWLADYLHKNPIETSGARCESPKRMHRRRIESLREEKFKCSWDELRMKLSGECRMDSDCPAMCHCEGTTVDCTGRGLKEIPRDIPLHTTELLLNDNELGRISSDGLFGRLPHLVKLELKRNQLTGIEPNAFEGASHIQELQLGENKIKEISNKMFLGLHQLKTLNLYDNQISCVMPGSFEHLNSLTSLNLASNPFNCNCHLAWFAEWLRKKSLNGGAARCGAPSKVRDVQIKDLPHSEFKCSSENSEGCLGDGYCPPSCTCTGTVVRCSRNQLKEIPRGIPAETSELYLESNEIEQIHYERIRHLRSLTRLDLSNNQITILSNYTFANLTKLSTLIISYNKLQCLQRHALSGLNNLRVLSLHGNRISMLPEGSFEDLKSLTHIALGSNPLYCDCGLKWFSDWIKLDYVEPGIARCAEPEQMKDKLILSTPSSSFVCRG

With Drosophila Robo IG1–5 Fc (Fc fusion) the fold increase of the apparent affinity with 10 μg/ml heparin against no heparin was greater than 10 fold.
